Where a chain is given by its changes, count along the chain named.
T1: human placental growth factor (human, UniProt P49763-2 21-149, limits assumed)
T1 construct: also called PlGF; PIGF
T1 sequence (looked up): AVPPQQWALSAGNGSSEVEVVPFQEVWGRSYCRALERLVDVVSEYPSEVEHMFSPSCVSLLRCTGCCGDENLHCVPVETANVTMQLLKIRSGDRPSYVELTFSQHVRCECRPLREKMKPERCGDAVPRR

T2: human VEGF-D (human, UniProt O43915 93-201, limits assumed)
T2 construct: also called hVEGF-D
T2 sequence (looked up): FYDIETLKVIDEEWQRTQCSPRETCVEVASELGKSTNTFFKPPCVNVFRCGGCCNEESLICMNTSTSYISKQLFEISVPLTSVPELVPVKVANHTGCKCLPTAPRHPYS

T3: human VEGF-B (human, UniProt P49765-2 22-188, limits assumed)
T3 construct: also called hVEGF-B
T3 sequence (looked up): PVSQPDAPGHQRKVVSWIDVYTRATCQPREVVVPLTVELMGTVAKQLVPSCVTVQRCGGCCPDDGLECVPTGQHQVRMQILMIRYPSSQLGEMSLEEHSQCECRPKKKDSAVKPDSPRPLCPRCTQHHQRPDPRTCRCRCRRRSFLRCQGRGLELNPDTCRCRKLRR

T4: human VEGF-C (human, UniProt P49767 103-227, limits assumed)
T4 construct: also called hVEGF-C
T4 sequence (looked up): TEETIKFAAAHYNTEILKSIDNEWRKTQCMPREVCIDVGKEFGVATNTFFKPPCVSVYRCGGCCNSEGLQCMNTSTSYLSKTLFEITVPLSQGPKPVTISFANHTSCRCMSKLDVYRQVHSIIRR

T5: mouse VEGF (mouse, UniProt Q00731-2 27-190)
T5 construct: Bought recombinant protein; also called mVEGF-A; mouse VEGF-A
T5 sequence (looked up): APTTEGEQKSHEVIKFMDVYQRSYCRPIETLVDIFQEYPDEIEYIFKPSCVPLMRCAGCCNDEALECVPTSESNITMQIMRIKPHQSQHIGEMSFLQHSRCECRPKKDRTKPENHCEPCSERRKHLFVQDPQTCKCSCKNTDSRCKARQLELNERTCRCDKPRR

B1: HF2-26 (antibody, V domains shown)
VH: EVQLVESGGGLVQPGGSLRLSCAASRFNMRSHGMQWVRQAPGKGLEYVAGISSDGSWIRVQAAVEGRFTISRDDSKNTAYLQMNSLRAEDTAVYYCARDFSTGYGADSIDAWGQGTLVTVSS
VL: DIQMTQSPSSLSASVGDRVTITCTAPADSAYGYGWYQQKPGKAPKTLIYWDDKRPSGVPSRFSGSRSGTDFTLTISSLQPEDFATYYCGAWEYSGGVGIFGQGTKVEIK
B2: HF2-25 (antibody, V domains shown)
VH: B1 VH with R26Y, F27M, N28E, M29Y, I58F, V60M, Q61N
VL: B1 VL with T24S, A25G, P26G, A27S, D28N, S29F, A30P, Y31M
B3: HF2-19 (antibody, V domains shown)
VH: B1 VH with R26G, N28S, M29T, I58K, R59A, V60T, Q61A
VL: B1 VL with T24S, A25G, P26G, A27S
B4: HF2-5 (antibody, V domains shown)
VH: B1 VH with R26G, N28M, M29I, I58A, V60H, Q61S
VL: B1 VL with T24S, A25G, P26G, A27S
notes: also called HF-5
B5: HF2-9 (antibody, V domains shown)
VH: B1 VH with R26M, N28R, M29I, I58F, Q61A
VL: B1 VL with T24S, A25G, P26G, A27S, D28M, S29E, A30P, Y31L
notes: also called HF-9
B6: HF2-8 (antibody, V domains shown)
VH: B1 VH with R26G, N28H, M29I, I58L, R59K, V60L, Q61S
VL: B1 VL with T24S, A25G, P26G, A27S, D28T, S29Y, A30S, Y31L
notes: also called HF-8
B7: HF2-14 (antibody, V domains shown)
VH: B1 VH with R26H, F27S, N28S, M29I, I58L, V60Q, Q61D
VL: B1 VL with T24S, A25G, P26G, A27S
B8: HF2-4 (antibody, V domains shown)
VH: B1 VH with R26G, F27W, N28S, I58R, V60H, Q61S
VL: B1 VL with T24S, A25G, P26G, A27S
notes: also called HF-4
B9: HF2-1 (antibody, V domains shown)
VH: B1 VH with R26N, N28V, M29F, I58T, R59G, V60Y, Q61G
VL: B1 VL with T24S, A25G, P26G, A27S
notes: also called HF-1
B10: HF2-11 (antibody, V domains shown)
VH: B1 VH with R26G, N28L, M29I, I58V, R59K, Q61A
VL: B1 VL with T24S, A25G, P26G, A27S, D28S, S29E, A30P, Y31L
notes: also called HF-11; clone HF2-11
B11: HF2-13 (antibody, V domains shown)
VH: B1 VH with R26G, N28L, M29V, I58Q, Q61N
VL: B1 VL with T24S, A25G, P26G, A27S, S29L, A30L, Y31L
B12: HF2-10 (antibody, V domains shown)
VH: B1 VH with R26F, F27Q, N28Y, M29F, I58F, Q61A
VL: B1 VL with T24S, A25G, P26G, A27S, D28M, S29E, A30P, Y31L

molecular target: T6, human VEGF (human, UniProt P15692-4 27-191); assay: ELISA, human VEGF coated, absorbance 650 nm [g]
T6 construct: Bought recombinant protein; also called hVEGF; human VEGF-A

Binder | EC50 (read off the curve) [nM]
B1 | ~0.3
B2 | ~0.2
B3 | ~0.1

molecular target: T6, human VEGF; assay: SPR (BIAcore X100), VEGF on CM5 chip, IgG injected, 1:1 Langmuir
Source text: Meanwhile, to measure the affinity, human VEGF and mouse VEGF were coupled to carboxymethylated dextran biosensor chips (CM5, GE) according to the manufacturer's instructions.
The association and dissociation rates were expressed by the association and dissociation sensorgram, and calculated using a simple 1:1 Langmuir binding model (BIAcore X100 evaluation software, ver. 2.0).

Binder | Kd [nM] | koff [s⁻¹] | kon [M⁻¹ s⁻¹]
B4 | 0.019 | 2.6e-05 | 1.3e+06
B5 | 0.018 | 3.2e-05 | 1.7e+06
B6 | 0.036 | 5.7e-05 | 1.5e+06
B7 | < 0.001 | < 1e-06 | 1.3e+06
B8 | 0.0019 | 3.1e-06 | 1.6e+06
B9 | < 0.001 | < 1e-06 | 2.5e+06
B10 | 0.0047 | 6.8e-06 | 1.4e+06
B11 | ≤ 0.009 | ≤ 1e-05 | 1.4e+06
B12 | < 0.001 | < 1e-06 | 1.6e+06

molecular target: T1, human placental growth factor; assay: ELISA, 0.2 ug/ml protein coated, anti-human IgG-Fab-HRP, absorbance 650 nm; antibody concentration not shown
Experimental: (§1) 0.2 μg/ml each of the respective proteins (hVEGF-A, mVEGF-A, hVEGF-B, hVEGF-C, hVEGF-D and PlGF) (R&D systems) were coated to the wells of ELISA plate, respectively. After blocking them with PBS containing 3% BSA and 0.05% Tween 20 for 30 min at 37° C., antibody clone proteins of increasing concentrations were incubated at 37° C. for 2 hr. Then, the wells were washed with PBS containing 3% BSA and 0.05% Tween 20 for 3 times, and anti-human IgG-Fab-HRP conjugate (Jackson Immunoresearch, USA) was added thereto and incubated for 1 hr at room temperature. Then they were washed with PBS containing 3% BSA and 0.05% Tween 20 for 3 times, and developed using TMB, and absorbance was measured at 650 nm.

Binder | binding result
B4 | no binding
B5 | no binding
B9 | no binding
B10 | no binding

molecular target: T2, human VEGF-D; assay: as above
Experimental: as §1

Binder | binding result
B4 | no binding
B5 | no binding
B9 | no binding
B10 | no binding

molecular target: T3, human VEGF-B; assay: as above
Experimental: as §1

Binder | binding result
B4 | no binding
B5 | no binding
B9 | no binding
B10 | no binding

molecular target: T4, human VEGF-C; assay: as above
Experimental: as §1

Binder | binding result
B4 | no binding
B5 | no binding
B9 | no binding
B10 | no binding

molecular target: T6, human VEGF; assay: ELISA and BIAcore

Binder | fold affinity over mother clone F [times]
B4 | ≥ 10
B1 | ≥ 10
B5 | ≥ 10
B6 | ≥ 10
B7 | ≥ 10
B8 | ≥ 10
B9 | ≥ 10
B2 | ≥ 10
B10 | ≥ 10
B11 | ≥ 10
B3 | ≥ 10
B12 | ≥ 10

molecular target: T5, mouse VEGF; assay: ELISA and BIAcore

Binder | fold affinity over mother clone F [times]
B4 | ≥ 10
B1 | ≥ 10
B5 | ≥ 10
B6 | ≥ 10
B7 | ≥ 10
B8 | ≥ 10
B9 | ≥ 10
B2 | ≥ 10
B10 | ≥ 10
B11 | ≥ 10
B3 | ≥ 10
B12 | ≥ 10

molecular target: T6, human VEGF; assay: ELISA, human VEGF coated, anti-human Fc-HRP, absorbance 450 nm [b]
Experimental: (§2) 1.5 ng of human VEGF diluted in 150 μL of buffer solution was placed in 96-well immune plate (Nunc, USA), and adsorbed at 4° C. overnight, followed by washing 3 times with a buffer solution containing 0.1% Tween 20. Then, they were reacted with a buffer solution including 1% bovine serum albumin (Sigma, USA) for 1 hr at room temperature, and washed 3 times. Then each well was treated with 150 μL of serially diluted antibody (1 ng/mL, 10 ng/mL, 30 ng/mL, 100 ng/mL, 1000 ng/mL and 3000 ng/mL) They were allowed to react for 1 hr at room temperature so that antigens may bind to antibodies, followed by washing 3 times with a buffer solution.
(§3) Each well was treated at 150 μL per well with anti-human immunoglobulin Fc-HRP antibody (AbSerotec, USA) diluted 1:20000 and allowed to react for 1 hr at room temperature. After the reaction was completed, washing was performed 3 times with a buffer solution, followed by addition of 150 μL of TMB (Sigma, USA) and color development for 10 min. The reaction was terminated with 1N sulfuric acid solution, and absorbance was measured at 450 nm using a spectrophotometer (Molecular Device, USA).

Binder | EC50 (read off the curve) [µg/mL]
B4 | ~0.04
B5 | ~0.04
B10 | ~0.04

molecular target: T6, human VEGF; assay: competition ELISA: human VEGF coated, 9 nM KDR ECD IgG-Fc (VEGFR2) added together with the antibody, bound receptor-Fc detected, absorbance 405 nm
Experimental: 0.5 μg/ml of human VEGF was coated to 96-well ELISA plate and blocked with PBS solution containing 3% BSA and 0.05% Tween 20.

Binder | IC50 (read off the curve) [nM]
B4 | ~5
B5 | ~5
B9 | ~5
B10 | ~5

molecular target: T6, human VEGF; assay: ELISA, human VEGF coated, anti-human Fc-HRP, absorbance 450 nm [c]
Experimental: as §2, §3

Binder | EC50 (read off the curve) [µg/mL]
B4 | ~0.02
B6 | ~0.02
B8 | ~0.02

molecular target: T5, mouse VEGF; assay: ELISA, mouse VEGF coated, anti-human Fc-HRP, absorbance 450 nm [a]

Binder | EC50 (read off the curve) [µg/mL]
B4 | ~0.06
B5 | ~0.05
B9 | ~0.08
B10 | ~0.05

Source: patent publication US20160122426A1 (DONG A SOCIO, published 2016)
